This note sets out measurements from US12545899B2, “Luciferase enzymes for use with thermostable luciferins in bioluminescent assays” (Promega Corporation, priority 2018, dated 2026).

Series [1] is described as follows: Effect of individual mutations: maximum luminescence with CS0333. The series is classed as biochemical. Conditions: for Vmax (RLU) with CS0333: 10 fM to 1 mM CS0333, Detection Reagent (DR) buffer. The method, then: Experiments were also conducted to evaluate and compare the activities of the various luciferase enzyme variants, including the effects of individual amino acid mutations. To evaluate the effect of individual mutations on luciferase enzyme variants, 0.005 mg/ml luciferase enzyme variant was mixed with 1 mM ATP+10 fM to 1 mM CS0333 in Detection Reagent (DR) buffer.

A short description of series [2]: Differential scanning fluorimetry (DSF) analysis. The note with it: Table 9A. The series is classed as physicochemical. In outline: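 Thermal melt with 5× final Sypro Orange: ramp 1° C/min from 30 to 95° C, reading each 60 s, derivative of fluorescence plotted by temperature. Luciferase variants were in 20 mM HEPES pH 7.5, 200 mM NaCl, 1 mM EDTA; other enzymes in 50 mM HEPES pH 7.5, 100 mM NaCl, 2 mM EDTA.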

B1: MK0110: SEQ ID NO: 77; H244W (protein)
chain: MADKNILYGPEPFYPLEDGTAGEQMFDALSRYAAIPGCIALTNAHTKENVLYEEFLKLSCRLAESFKKYGLKQNDTIAVCSENSLQFFLPVIASLYLGIIVAPVNDKYVERELIHSLGIVKPRIVFCSKNTFQKVLNVKSKLKSIETIIILDLNEDLGGYQCLNNFISQNSDSNLDVKKFKPYSFNRDDQVASIMFSSGTTGLPKGVMLTHKNIVARFSIAKDPTFGDAINPTSAILTVIPFHWGFGMMTTLGYFTCGFRVVLMHTFEEKLFLQSLQDYKVESTLLVPTLMAFLAKSALVEKYDFPHLKEIASGGAPLSKEIGEMVKKRFKLNFVRQGYGLTEATSAVLITPKGDAKPGSTGKIVPLHAVKVVDPTTGKILGPNEPGELYFKGPMKMKGYYNNEEATKAIIDNDGWLRSGDIAYYDNDGHFYIVDRLKSLIKYKGYQVAPAEIEGILLQHPYIVDAGVTGIPDEAAGELPAAGVVVQTGKYLNEQIVQDYVASQVSTAKWLRGGVKFLDEIPKGSTGKIDRKVLRQMLEKHTNGHHHHHHHH
B1: the “Vmax (RLU) with CS0333” value in series [1] is listed as 9,534 RLU. Further, in series [1] (single point mutation introduced into the Ppe variant, DR buffer), the “improvement of maximum luminescence with CS0333 above background” value is around 5 fold. For the same molecule, in series [2], the “DSF Tm (° C.)” value is 80 °C.

B2: MK0116: SEQ ID NO: 83; I396L (protein)
chain: MADKNILYGPEPFYPLEDGTAGEQMFDALSRYAAIPGCIALTNAHTKENVLYEEFLKLSCRLAESFKKYGLKQNDTIAVCSENSLQFFLPVIASLYLGIIVAPVNDKYVERELIHSLGIVKPRIVFCSKNTFQKVLNVKSKLKSIETIIILDLNEDLGGYQCLNNFISQNSDSNLDVKKFKPYSFNRDDQVAAIMFSSGTTGLPKGVMLTHKNIVARFSIAKDPTFGNAINPTSAILTVIPFHWGFGMMTTLGYFTCGFRVVLMHTFEEKLFLQSLQDYKVESTLLVPTLMAFLAKSALVEKYDFPHLKEIASGGAPLSKEIGEMVKKRFKLNFVRQGYGLTEATSAVLITPKGDAKPGSTGKIVPLHAVKVVDPTTGKILGPNEPGELYFKGPMKMKGYYNNEEATKAIIDNDGWLRSGDIAYYDNDGHFYIVDRLKSLIKYKGYQVAPAEIEGILLQHPYIVDAGVTGIPDEAAGELPAAGVVVQTGKYLNEQIVQDYVASQVSTAKWLRGGVKFLDEIPKGSTGKIDRKVLRQMLEKHTNGHHHHHHHH
Consider B2, for which the “Vmax (RLU) with CS0333” value in series [1] is 7,428 RLU. For the same molecule, the “DSF Tm (° C.)” value in series [2] was determined as 73 °C.

B3: MK0113: SEQ ID NO: 80; T344A (protein)
chain: MADKNILYGPEPFYPLEDGTAGEQMFDALSRYAAIPGCIALTNAHTKENVLYEEFLKLSCRLAESFKKYGLKQNDTIAVCSENSLQFFLPVIASLYLGIIVAPVNDKYVERELIHSLGIVKPRIVFCSKNTFQKVLNVKSKLKSIETIIILDLNEDLGGYQCLNNFISQNSDSNLDVKKFKPYSFNRDDQVAAIMFSSGTTGLPKGVMLTHKNIVARFSIAKDPTFGDAINPTSAILTVIPFHWGFGMMTTLGYFTCGFRVVLMHTFEEKLFLQSLQDYKVESTLLVPTLMAFLAKSALVEKYDFSHLKEIASGGAPLSKEIGEMVKKRFKLNFVRQGYGLTEATSAVLITPKGDAKPGSTGKIVPLHAVKVVDPTTGKILGPNEPGELYFKGPMKMKGYYNNEEATKAIIDNDGWLRSGDIAYYDNDGHFYIVDRLKSLIKYKGYQVAPAEIEGILLQHPYIVDAGVTGIPDEAAGELPAAGVVVQTGKYLNEQIVQDYVASQVSTAKWLRGGVKFLDEIPKGSTGKIDRKVLRQMLEKHTNGHHHHHHHH
As to B3, in series [1], the “Vmax (RLU) with CS0333” value is 1,948 RLU. The “DSF Tm (° C.)” value in series [2] was determined as 71 °C.

B4: MK0114: SEQ ID NO: 81; T344M (protein)
chain: MADKNILYGPEPFYPLEDGTAGEQMFDALSRYAAIPGCIALTNAHTKENVLYEEFLKLSCRLAESFKKYGLKQNDTIAVCSENSLQFFLPVIASLYLGIIVAPVNDKYVERELIHSLGIVKPRIVFCSKNTFQKVLNVKSKLKSIETIIILDLNEDLGGYQCLNNFISQNSDSNLDVKKFKPYSFNRDDQVAAIMFSSGTTGLPKGVMLTHKNIVARFSIAKDPTFGDAINPTSAILTVIPFHWGFGMMTTLGYFTCGFRVVLMHTFEEKLFLQSLQDYKVESTLLVPTLMAFLAKSALVEKYDFPHLKEIASGGAPLSKEIGEMVKKRFKLNFVRQGYGLTETTSAVLITPKGDAKPGSTGKIVPLHAVKVVDPTTGKILGPNEPGELYFKGPMKMKGYYNNEEATKAIIDNDGWLRSGDIAYYDNDGHFYIVDRLKSLIKYKGYQVAPAEIEGILLQHPYIVDAGVTGIPDEAAGELPAAGVVVQTGKYLNEQIVQDYVASQVSTAKWLRGGVKFLDEIPKGSTGKIDRKVLRQMLEKHTNGHHHHHHHH
In the case of B4, in series [1], the “Vmax (RLU) with CS0333” value is on record as 1,030 RLU. The “DSF Tm (° C.)” value in series [2] was determined as 70 °C.

B5: MK0111: SEQ ID NO: 78; L305F (protein)
chain: MADKNILYGPEPFYPLEDGTAGEQMFDALSRYAAIPGCIALTNAHTKENVLYEEFLKLSCRLAESFKKYGLKQNDTIAVCSENSLQFFLPVIASLYLGIIVAPVNDKYVERELIHSLGIVKPRIVFCSKNTFQKVLNVKSKLKSIETIIILDLNEDLGGYQCLNNFISQNSDSNLDVKKFKPYSFNRDDQVAAIMFSSGTTGLPKGVMLTHKNIVARFSIAKDPTFGDAINPTSAILTVIPFHHGFGMMTTLGYFTCGFRVVLMHTFEEKLFLQSLQDYKVESTLLVPTLMAFLAKSALVEKYDFPHLKEIASGGAPLSKEIGEMVKKRFKLNFVRQGYGLTEATSAVLITPKGDAKPGSTGKIVPLHAVKVVDPTTGKILGPNEPGELYFKGPMKMKGYYNNEEATKAIIDNDGWLRSGDIAYYDNDGHFYIVDRLKSLIKYKGYQVAPAEIEGILLQHPYIVDAGVTGIPDEAAGELPAAGVVVQTGKYLNEQIVQDYVASQVSTAKWLRGGVKFLDEIPKGSTGKIDRKVLRQMLEKHTNGHHHHHHHH
For the molecule B5, the “Vmax (RLU) with CS0333” value in series [1] is given as 1,166 RLU. In series [2], the “DSF Tm (° C.)” value worked out at 79 °C.

B6: MK0115: SEQ ID NO: 82; I396K (protein)
chain: MADKNILYGPEPFYPLEDGTAGEQMFDALSRYAAIPGCIALTNAHTKENVLYEEFLKLSCRLAESFKKYGLKQNDTIAVCSENSLQFFLPVIASLYLGIIVAPVNDKYVERELIHSLGIVKPRIVFCSKNTFQKVLNVKSKLKSIETIIILDLNEDLGGYQCLNNFISQNSDSNLDVKKFKPYSFNRDDQVAAIMFSSGTTGLPKGVMLTHKNIVARFSIAKDPTFGDAINPTSAILTVIPFHWGFGMMTTLGYFTCGFRVVLMHTFEEKLFLQSLQDYKVESTLLVPTLMAFLAKSALVEKYDFPHLKEIASGGAPLSKEIGEMVKKRFKLNFVRQGYGLTEATSAVLITPKGDAKPGSTGKIVPLHAVKVVDPTTGKILGPNEPGELYFKGPMIMKGYYNNEEATKAIIDNDGWLRSGDIAYYDNDGHFYIVDRLKSLIKYKGYQVAPAEIEGILLQHPYIVDAGVTGIPDEAAGELPAAGVVVQTGKYLNEQIVQDYVASQVSTAKWLRGGVKFLDEIPKGSTGKIDRKVLRQMLEKHTNGHHHHHHHH
Regarding B6, the “Vmax (RLU) with CS0333” value in series [1] is recorded as 2,120 RLU. Moreover, in series [2], the “DSF Tm (° C.)” value stood at 67 °C.

B7: MK0117: SEQ ID NO: 84; H244W+T344A+I396K+S193A+N228D+L305F+S306P (protein)
chain: MADKNILYGPEPFYPLEDGTAGEQMFDALSRYAAIPGCIALTNAHTKENVLYEEFLKLSCRLAESFKKYGLKQNDTIAVCSENSLQFFLPVIASLYLGIIVAPVNDKYVERELIHSLGIVKPRIVFCSKNTFQKVLNVKSKLKSIETIIILDLNEDLGGYQCLNNFISQNSDSNLDVKKFKPYSFNRDDQVAAIMFSSGTTGLPKGVMLTHKNIVARFSIAKDPTFGDAINPTSAILTVIPFHWGFGMMTTLGYFTCGFRVVLMHTFEEKLFLQSLQDYKVESTLLVPTLMAFLAKSALVEKYDFPHLKEIASGGAPLSKEIGEMVKKRFKLNFVRQGYGLTEATSAVLITPKGDAKPGSTGKIVPLHAVKVVDPTTGKILGPNEPGELYFKGPMKMKGYYNNEEATKAIIDNDGWLRSGDIAYYDNDGHFYIVDRLKSLIKYKGYQVAPAEIEGILLQHPYIVDAGVTGIPDEAAGELPAAGVVVQTGKYLNEQIVQDYVASQVSTAKWLRGGVKFLDEIPKGSTGKIDRKVLRQMLEKHTNGHHHHHHHH
Consider B7, for which, in series [1], the “Vmax (RLU) with CS0333” value is 3,820,310 RLU. Besides, the “DSF Tm (° C.)” value in series [2] is 63 °C.

B8: MK0112: SEQ ID NO: 79; S306P (protein)
chain: MADKNILYGPEPFYPLEDGTAGEQMFDALSRYAAIPGCIALTNAHTKENVLYEEFLKLSCRLAESFKKYGLKQNDTIAVCSENSLQFFLPVIASLYLGIIVAPVNDKYVERELIHSLGIVKPRIVFCSKNTFQKVLNVKSKLKSIETIIILDLNEDLGGYQCLNNFISQNSDSNLDVKKFKPYSFNRDDQVAAIMFSSGTTGLPKGVMLTHKNIVARFSIAKDPTFGDAINPTSAILTVIPFHWGFGMMTTLGYFTCGFRVVLMHTFEEKLFLQSLQDYKVESTLLVPTLMAFLAKSALVEKYDLPHLKEIASGGAPLSKEIGEMVKKRFKLNFVRQGYGLTEATSAVLITPKGDAKPGSTGKIVPLHAVKVVDPTTGKILGPNEPGELYFKGPMKMKGYYNNEEATKAIIDNDGWLRSGDIAYYDNDGHFYIVDRLKSLIKYKGYQVAPAEIEGILLQHPYIVDAGVTGIPDEAAGELPAAGVVVQTGKYLNEQIVQDYVASQVSTAKWLRGGVKFLDEIPKGSTGKIDRKVLRQMLEKHTNGHHHHHHHH
Turning to B8, the “Vmax (RLU) with CS0333” value in series [1] is recorded as 1,232 RLU. In addition, in series [2], the “DSF Tm (° C.)” value came out at 80 °C.
